In the supplement of paper PMC6755084:

B1: F1*; the commonest letter at each place (parent)
chain: GAGACCGCAACTGAAAAGTTGTTATCACTTGTCGTAAGACACTTTGGATGGGTTGAAGTTCTGCACGTAGAAGCAAAAGGC

Variants of: B1
Assay: fraction ligated after 30 min (ligated reads / total reads); higher = more ligase activity
Conditions: with F1*sub RNA substrate (template-directed ligation), 42 °C
Procedure, shortened: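 Ligase ribozyme variants were made from oligo-pool templates by PCR amplification, T7 transcription and gel purification. After gel separation, ligated and unligated bands were reverse transcribed with barcoded primers and sequenced on a MiSeq, with core bases filtered at quality ≥20. The fraction ligated for each variant was the number of ligated reads divided by total reads.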

Variant | fraction ligated
GAGACCGCAACTGAAAAGTTGTTATCACTTGCCGTAAGACACTTTGGACGGGTTGAAGTTCTGCACGTAGAAGCAAAAGGC [T32C T49C] | 0.193
GAGACCGCAACTGAAAAGTTGTTATCACTTGCCGTAAGACACTTTGGAAGGGTTGAAGTTCTGCACGTAGAAGCAAAAGGC [T32C T49A] | 0.512
GAGACCGCAACTGAAAAGTTGTTATCACTTGCCGTAAGACACTTTGGAGGGGTTGAAGTTCTGCACGTAGAAGCAAAAGGC [T32C T49G] | 0.647
GAGACCGCAACTGAAAAGTTGTTATCACTTGGCGTAAGACAATTTGGATGGGTTGAAGTTCTGCACGTAGAAGCAAAAGGC [T32G C42A] | 0.845
GAGACCGCAACTGAAAAGTTGTTATCACTTGGCGTAAGACATTTTGGATGGGTTGAAGTTCTGCACGTAGAAGCAAAAGGC [T32G C42T] | 0.846
GAGACCGCAACTGAAAAGTTGTTATCACTTGGCGTAAGACAGTTTGGATGGGTTGAAGTTCTGCACGTAGAAGCAAAAGGC [T32G C42G] | 0.837
GAGACCGCAACTGAAAAGTTGTTATCACTTGGCGTAAGACACTTTGGATGGGTTGCAGTTCTGCACGTAGAAGCAAAAGGC [T32G A56C] | 0.743
GAGACCGCAACTGAAAAGTTGTTATCACTTGGCGTAAGACACTTTGGATGGGTTGGAGTTCTGCACGTAGAAGCAAAAGGC [T32G A56G] | 0.799
GAGACCGCAACTGAAAAGTTGTTATCACTTGGCGTAAGACACTTTGGATGGGTTGTAGTTCTGCACGTAGAAGCAAAAGGC [T32G A56T] | 0.785
GAGACCGCAACTGAAAAGTTGTTATCACTTGGCGTAAGACACTTTGGATGGGTTGAAGTTCTGCACGTAGAAGCAAAAGGC [T32G] | 0.828
GAGACCGCAACTGAAAAGTTGTTATCACTTGGTGTAAGACACTTTGGATGGGTTGAAGTTCTGCACGTAGAAGCAAAAGGC [T32G C33T] | 0.856
GAGACCGCAACTGAAAAGTTGTTATCACTTGGGGTAAGACACTTTGGATGGGTTGAAGTTCTGCACGTAGAAGCAAAAGGC [T32G C33G] | 0.828
GAGACCGCAACTGAAAAGTTGTTATCACTTGGAGTAAGACACTTTGGATGGGTTGAAGTTCTGCACGTAGAAGCAAAAGGC [T32G C33A] | 0.843
GAGACCGCAACTGAAAAGTTGTTATCACTTGGCGTAAGCCACTTTGGATGGGTTGAAGTTCTGCACGTAGAAGCAAAAGGC [T32G A39C] | 0.855
GAGACCGCAACTGAAAAGTTGTTATCACTTGGCGTAAGTCACTTTGGATGGGTTGAAGTTCTGCACGTAGAAGCAAAAGGC [T32G A39T] | 0.862
GAGACCGCAACTGAAAAGTTGTTATCACTTGGCGTAAGGCACTTTGGATGGGTTGAAGTTCTGCACGTAGAAGCAAAAGGC [T32G A39G] | 0.819
GAGACCGCAACTGAAAAGTTGTTATCACTTGGCGTAGGACACTTTGGATGGGTTGAAGTTCTGCACGTAGAAGCAAAAGGC [T32G A37G] | 0.842

Variant | fraction ligated
GAGACCGCAACTGAAAAGTTGTTATCACTTGGCGTACGACACTTTGGATGGGTTGAAGTTCTGCACGTAGAAGCAAAAGGC [T32G A37C] | 0.815
GAGACCGCAACTGAAAAGTTGTTATCACTTGGCGTATGACACTTTGGATGGGTTGAAGTTCTGCACGTAGAAGCAAAAGGC [T32G A37T] | 0.825
GAGACCGCAACTGAAAAGTTGTTATCACTTGGCGTTAGACACTTTGGATGGGTTGAAGTTCTGCACGTAGAAGCAAAAGGC [T32G A36T] | 0.823
GAGACCGCAACTGAAAAGTTGTTATCACTTGGCGTCAGACACTTTGGATGGGTTGAAGTTCTGCACGTAGAAGCAAAAGGC [T32G A36C] | 0.798
GAGACCGCAACTGAAAAGTTGTTATCACTTGGCGTGAGACACTTTGGATGGGTTGAAGTTCTGCACGTAGAAGCAAAAGGC [T32G A36G] | 0.813
GAGACCGCAACTGAAAAGTTGTTATCACTTGGCGTAAGACTCTTTGGATGGGTTGAAGTTCTGCACGTAGAAGCAAAAGGC [T32G A41T] | 0.826
GAGACCGCAACTGAAAAGTTGTTATCACTTGGCGTAAGACGCTTTGGATGGGTTGAAGTTCTGCACGTAGAAGCAAAAGGC [T32G A41G] | 0.754
GAGACCGCAACTGAAAAGTTGTTATCACTTGGCGTAAGACCCTTTGGATGGGTTGAAGTTCTGCACGTAGAAGCAAAAGGC [T32G A41C] | 0.794
GAGACCGCAACTGAAAAGTTGTTATCACTTGGCGTAAGACACTTTGGGTGGGTTGAAGTTCTGCACGTAGAAGCAAAAGGC [T32G A48G] | 0.75
GAGACCGCAACTGAAAAGTTGTTATCACTTGGCGTAAGACACTTTGGTTGGGTTGAAGTTCTGCACGTAGAAGCAAAAGGC [T32G A48T] | 0.143
GAGACCGCAACTGAAAAGTTGTTATCACTTGGCGTAAGACACTTTGGCTGGGTTGAAGTTCTGCACGTAGAAGCAAAAGGC [T32G A48C] | 0.401
GAGACCGCAACTGAAAAGTTGTTATCACTTGGCGTAAGAGACTTTGGATGGGTTGAAGTTCTGCACGTAGAAGCAAAAGGC [T32G C40G] | 0.813
GAGACCGCAACTGAAAAGTTGTTATCACTTGGCGTAAGAAACTTTGGATGGGTTGAAGTTCTGCACGTAGAAGCAAAAGGC [T32G C40A] | 0.825
GAGACCGCAACTGAAAAGTTGTTATCACTTGGCGTAAGATACTTTGGATGGGTTGAAGTTCTGCACGTAGAAGCAAAAGGC [T32G C40T] | 0.836
GAGACCGCAACTGAAAAGTTGTTATCACTTGGCGTAAGACACTTTGGATGGGTTGATGTTCTGCACGTAGAAGCAAAAGGC [T32G A57T] | 0.814
GAGACCGCAACTGAAAAGTTGTTATCACTTGGCGTAAGACACTTTGGATGGGTTGAGGTTCTGCACGTAGAAGCAAAAGGC [T32G A57G] | 0.844
GAGACCGCAACTGAAAAGTTGTTATCACTTGGCGTAAGACACTTTGGATGGGTTGACGTTCTGCACGTAGAAGCAAAAGGC [T32G A57C] | 0.82
